US20110300138A1 (published 2011)
Like-named read-outs stand apart in the source and are kept apart here.

Columns and labels:
Assay in all cases: cell-based or functional assay
[1] = molecular target: TSHR with Asp151 mutated to Ala, expressed in CHO cells (human) (UniProt P16473)
[2] = molecular target: TSHR with Lys129 mutated to Ala, expressed in CHO cells (human) (UniProt P16473)
wild type TSHR (human) = wild type TSHR (human) (UniProt P16473)
[3] = molecular target: wild type TSHR expressed in CHO cells (human) (UniProt P16473)

- Mutated/wild type (%) of cyclic AMP produced; TSH 3 ng/mL [1]: 68%
- Mutated/wild type (%) of cyclic AMP produced; test sample: TSH (3 ng/mL) [1]: 62%
- Mutated/wild type (%) of cyclic AMP produced; test sample: TSH (2) (3 ng/mL, run at the end of assay) [1]: 44%
- % inhibition of TSH stimulation; TSH (2) control [2]: 3%
- Cyclic AMP produced; TSH 3 ng/mL [2]: 49.2 pmol/mL
- Cyclic AMP produced; TSH (2) [2]: 47.9 pmol/mL
- Mutated/wild type (%) of cyclic AMP produced; TSH 3 ng/mL [2]: 98%
- Mutated/wild type (%) of cyclic AMP produced; TSH (2) [2]: 90%
- % inhibition of TSH stimulation, TSH (2) run at the end of assay, wild type TSHR (wild type TSHR (human)): 0%
- Cyclic AMP produced (mean of duplicate), TSH 3 ng/mL (wild type TSHR (human)): 88 pmol/mL
- Cyclic AMP produced (pmol/mL), TSH 3 ng/mL, wild type TSHR (wild type TSHR (human)): 101 pmol/mL
- Cyclic AMP produced (pmol/mL), TSH (2) 3 ng/mL run at the end of assay, wild type TSHR (wild type TSHR (human)): 131 pmol/mL
- Cyclic AMP produced, TSH 0.01 ng/mL, Experiment 1 (wild type TSHR (human)): 1.22 pmol/mL
- Cyclic AMP produced, TSH 0.01 ng/mL, Experiment 2 (wild type TSHR (human)): 2.02 pmol/mL
- Cyclic AMP produced, TSH 0.03 ng/mL, Experiment 1 (wild type TSHR (human)): 1.85 pmol/mL
- Cyclic AMP produced, TSH 0.03 ng/mL, Experiment 2 (wild type TSHR (human)): 1.96 pmol/mL
- Cyclic AMP produced, TSH 0.1 ng/mL, Experiment 1 (wild type TSHR (human)): 4.89 pmol/mL
- Cyclic AMP produced, TSH 0.1 ng/mL, Experiment 2 (wild type TSHR (human)): 4.49 pmol/mL
- Cyclic AMP produced, TSH 0.3 ng/mL, Experiment 1 (wild type TSHR (human)): 17.4 pmol/mL
- Cyclic AMP produced, TSH 0.3 ng/mL, Experiment 2 (wild type TSHR (human)): 13.5 pmol/mL
- Cyclic AMP produced, TSH 1 ng/mL, Experiment 1 (wild type TSHR (human)): 52.9 pmol/mL
- Cyclic AMP produced, TSH 1 ng/mL, Experiment 2 (wild type TSHR (human)): 43.2 pmol/mL
- Cyclic AMP produced; TSH 3 ng/mL; Experiment 1 (wild type TSHR (human)): 70.6 pmol/mL
- Cyclic AMP produced; TSH 3 ng/mL; Experiment 2 (wild type TSHR (human)): 84.8 pmol/mL
- % inhibition of TSH stimulation, wild type TSHR; TSH (2) (run at the end of assay) [3]: 0%
- % inhibition of TSH stimulation; TSH (2) [3]: 0%
- % inhibition of TSH stimulation; TSH (2) (run at the end of assay, against the first TSH sample); Experiment 1 [3]: 0%
- % inhibition of TSH stimulation; TSH (2) (run at the end of assay, against the first TSH sample); Experiment 2 [3]: 0%
- % inhibition of TSH stimulation; TSH (2), run at the end of assay [3]: 0.2%
- % inhibition of TSH stimulation; TSH (2); Experiment 1 [3]: 0%
- % inhibition of TSH stimulation; TSH (2); Experiment 2 [3]: 0%
- Cyclic AMP produced (pmol/mL), 0.01 ng/mL TSH [3]: 2.29 pmol/mL
- Cyclic AMP produced (pmol/mL), 0.01 ng/mL TSH, Experiment 1 [3]: 1.8 pmol/mL
- Cyclic AMP produced (pmol/mL), 0.01 ng/mL TSH, Experiment 2 [3]: 1.3 pmol/mL
- Cyclic AMP produced (pmol/mL), 0.03 ng/mL TSH [3]: 3.56 pmol/mL
- Cyclic AMP produced (pmol/mL), 0.03 ng/mL TSH, Experiment 1 [3]: 3.91 pmol/mL
- Cyclic AMP produced (pmol/mL), 0.03 ng/mL TSH, Experiment 2 [3]: 3 pmol/mL
- Cyclic AMP produced (pmol/mL), 0.1 ng/mL TSH [3]: 8.45 pmol/mL
- Cyclic AMP produced (pmol/mL), 0.1 ng/mL TSH, Experiment 1 [3]: 8.92 pmol/mL
- Cyclic AMP produced (pmol/mL), 0.1 ng/mL TSH, Experiment 2 [3]: 6.69 pmol/mL
- Cyclic AMP produced (pmol/mL), 0.3 ng/mL TSH [3]: 26.3 pmol/mL
- Cyclic AMP produced (pmol/mL), 0.3 ng/mL TSH, Experiment 1 [3]: 33 pmol/mL
- Cyclic AMP produced (pmol/mL), 0.3 ng/mL TSH, Experiment 2 [3]: 26.2 pmol/mL
- Cyclic AMP produced (pmol/mL), 1 ng/mL TSH [3]: 65.7 pmol/mL
- Cyclic AMP produced (pmol/mL), 1 ng/mL TSH, Experiment 1 [3]: 76.1 pmol/mL
- Cyclic AMP produced (pmol/mL), 1 ng/mL TSH, Experiment 2 [3]: 68.1 pmol/mL
- Cyclic AMP produced (pmol/mL), 3 ng/mL TSH [3]: 77.1 pmol/mL
- Cyclic AMP produced (pmol/mL), 3 ng/mL TSH, Experiment 1 [3]: 86.2 pmol/mL
- Cyclic AMP produced (pmol/mL), 3 ng/mL TSH, Experiment 2 [3]: 69.8 pmol/mL
- Cyclic AMP produced (pmol/mL), TSH 0.01 ng/mL [3]: 1.56 pmol/mL
- Cyclic AMP produced (pmol/mL), TSH 0.01 ng/mL, Experiment 1 [3]: 1.37 pmol/mL
- Cyclic AMP produced (pmol/mL), TSH 0.01 ng/mL, Experiment 2 [3]: 2.1 pmol/mL
- Cyclic AMP produced (pmol/mL), TSH 0.03 ng/mL [3]: 2.42 pmol/mL
- Cyclic AMP produced (pmol/mL), TSH 0.03 ng/mL, Experiment 1 [3]: 1.58 pmol/mL
- Cyclic AMP produced (pmol/mL), TSH 0.03 ng/mL, Experiment 2 [3]: 4.48 pmol/mL
- Cyclic AMP produced (pmol/mL), TSH 0.1 ng/mL [3]: 4.09 pmol/mL
- Cyclic AMP produced (pmol/mL), TSH 0.1 ng/mL, Experiment 1 [3]: 1.83 pmol/mL
- Cyclic AMP produced (pmol/mL), TSH 0.1 ng/mL, Experiment 2 [3]: 10.3 pmol/mL
- Cyclic AMP produced (pmol/mL), TSH 0.3 ng/mL [3]: 11.4 pmol/mL
- Cyclic AMP produced (pmol/mL), TSH 0.3 ng/mL, Experiment 1 (single determination) [3]: 3.2 pmol/mL
- Cyclic AMP produced (pmol/mL), TSH 0.3 ng/mL, Experiment 2 [3]: 35.7 pmol/mL
- Cyclic AMP produced (pmol/mL), TSH 1 ng/mL [3]: 45.6 pmol/mL
- Cyclic AMP produced (pmol/mL), TSH 1 ng/mL, Experiment 1 [3]: 15.9 pmol/mL
- Cyclic AMP produced (pmol/mL), TSH 1 ng/mL, Experiment 2 [3]: 72 pmol/mL
- Cyclic AMP produced (pmol/mL), TSH 3 ng/mL [3]: 77.9 pmol/mL
- Cyclic AMP produced (pmol/mL), TSH 3 ng/mL, Experiment 1 [3]: 47.6 pmol/mL
- Cyclic AMP produced (pmol/mL), TSH 3 ng/mL, Experiment 2 [3]: 79.2 pmol/mL
- Cyclic AMP produced, TSH 0.01 ng/mL, wild type TSHR [3]: 2.28 pmol/mL
- Cyclic AMP produced, TSH 0.03 ng/mL, wild type TSHR [3]: 3.77 pmol/mL
- Cyclic AMP produced, TSH 0.1 ng/mL, wild type TSHR [3]: 9.55 pmol/mL
- Cyclic AMP produced, TSH 0.3 ng/mL, wild type TSHR [3]: 28.8 pmol/mL
- Cyclic AMP produced, TSH 1 ng/mL, wild type TSHR [3]: 76.8 pmol/mL
- Cyclic AMP produced, TSH 3 ng/mL, wild type TSHR [3]: 93.1 pmol/mL
- Cyclic AMP produced, wild type TSHR, TSH 0.01 ng/mL (Experiment 1) [3]: 1.69 pmol/mL
- Cyclic AMP produced, wild type TSHR, TSH 0.01 ng/mL (Experiment 2) [3]: 4.16 pmol/mL
- Cyclic AMP produced, wild type TSHR, TSH 0.03 ng/mL (Experiment 1) [3]: 2.46 pmol/mL
- Cyclic AMP produced, wild type TSHR, TSH 0.03 ng/mL (Experiment 2) [3]: 4.92 pmol/mL
- Cyclic AMP produced, wild type TSHR, TSH 0.1 ng/mL (Experiment 1) [3]: 6.18 pmol/mL
- Cyclic AMP produced, wild type TSHR, TSH 0.1 ng/mL (Experiment 2) [3]: 11.2 pmol/mL
- Cyclic AMP produced, wild type TSHR, TSH 0.3 ng/mL (Experiment 1) [3]: 18.9 pmol/mL
- Cyclic AMP produced, wild type TSHR, TSH 0.3 ng/mL (Experiment 2) [3]: 31.4 pmol/mL
- Cyclic AMP produced, wild type TSHR, TSH 1 ng/mL (Experiment 1) [3]: 45.2 pmol/mL
- Cyclic AMP produced, wild type TSHR, TSH 1 ng/mL (Experiment 2) [3]: 74.3 pmol/mL
- Cyclic AMP produced, wild type TSHR, TSH 3 ng/mL (Experiment 1) [3]: 61.6 pmol/mL
- Cyclic AMP produced, wild type TSHR, TSH 3 ng/mL (Experiment 2) [3]: 96.4 pmol/mL
- Cyclic AMP produced; TSH 3 ng/mL [3]: 85 pmol/mL
- Cyclic AMP produced; TSH 3 ng/mL alone [3]: 83.8 pmol/mL
- Cyclic AMP produced; TSH 3 ng/mL; Experiment 1 [3]: 68.8 pmol/mL
- Cyclic AMP produced; TSH 3 ng/mL; Experiment 2 [3]: 97.9 pmol/mL
- Cyclic AMP produced; TSH (2) [3]: 93.5 pmol/mL
- Cyclic AMP produced; TSH (2) 3 ng/mL, run at the end of assay [3]: 83.6 pmol/mL
- Cyclic AMP produced; TSH (2); Experiment 1 [3]: 74.3 pmol/mL
- Cyclic AMP produced; TSH (2); Experiment 2 [3]: 102 pmol/mL
- Experiment 1: % inhibition of TSH stimulation; TSH (2), run at the end of assay [3]: 0%
- Experiment 1; % inhibition of TSH stimulation; TSH (2) 3 ng/mL, run at the end of assay [3]: 5%
- Experiment 1; cyclic AMP produced; TSH 3 ng/mL [3]: 78 pmol/mL
- Experiment 1; cyclic AMP produced; TSH (2) 3 ng/mL, run at the end of assay [3]: 74.3 pmol/mL
- Experiment 2: % inhibition of TSH stimulation; TSH (2), run at the end of assay [3]: 0%
- Experiment 2; % inhibition of TSH stimulation; TSH (2) 3 ng/mL, run at the end of assay [3]: 3%
- Experiment 2; cyclic AMP produced; TSH 3 ng/mL [3]: 95.8 pmol/mL
- Experiment 2; cyclic AMP produced; TSH (2) 3 ng/mL, run at the end of assay [3]: 92.9 pmol/mL
- % inhibition of TSH stimulation; TSH (2) ([3]; record 2): 0%
- % inhibition of TSH stimulation; TSH (2); Experiment 1 ([3]; record 2): 0%
- % inhibition of TSH stimulation; TSH (2); Experiment 2 ([3]; record 2): 0%
- Cyclic AMP produced; TSH 3 ng/mL ([3]; record 2): 76.2 pmol/mL
- Cyclic AMP produced; TSH 3 ng/mL; Experiment 1 ([3]; record 2): 154 pmol/mL
- Cyclic AMP produced; TSH 3 ng/mL; Experiment 2 ([3]; record 2): 59.9 pmol/mL
- Cyclic AMP produced; TSH (2) ([3]; record 2): 93.8 pmol/mL
- Cyclic AMP produced; TSH (2); Experiment 1 ([3]; record 2): 160 pmol/mL
- Cyclic AMP produced; TSH (2); Experiment 2 ([3]; record 2): 61.5 pmol/mL
Substance: TSH (ligand)
